Entries after “also recorded” stand apart in the source; their conditions may differ. Like-named read-outs stand apart in the source and are kept apart here.
How the values were obtained:
[1] = system: Arthrobacter crystallopoietes KAIT-B-007 histamine oxidase; conditions: cited from earlier work
[2] = system: Aspergillus niger amine oxidase; conditions: cited from earlier work
[3] = system: porcine kidney diamine oxidase (DAO); conditions: cited from earlier work
[4] = system: human diamine oxidase (DAO); conditions: cited from earlier work
[5] = biological target: T1, Yarrowia lipolytica PO1f diamine oxidase-1 (DAO-1), wild type, SEQ ID NO: 1 (Yarrowia lipolytica, UniProt Q6CGT2)
T1 sequence (Q6CGT2 1-671): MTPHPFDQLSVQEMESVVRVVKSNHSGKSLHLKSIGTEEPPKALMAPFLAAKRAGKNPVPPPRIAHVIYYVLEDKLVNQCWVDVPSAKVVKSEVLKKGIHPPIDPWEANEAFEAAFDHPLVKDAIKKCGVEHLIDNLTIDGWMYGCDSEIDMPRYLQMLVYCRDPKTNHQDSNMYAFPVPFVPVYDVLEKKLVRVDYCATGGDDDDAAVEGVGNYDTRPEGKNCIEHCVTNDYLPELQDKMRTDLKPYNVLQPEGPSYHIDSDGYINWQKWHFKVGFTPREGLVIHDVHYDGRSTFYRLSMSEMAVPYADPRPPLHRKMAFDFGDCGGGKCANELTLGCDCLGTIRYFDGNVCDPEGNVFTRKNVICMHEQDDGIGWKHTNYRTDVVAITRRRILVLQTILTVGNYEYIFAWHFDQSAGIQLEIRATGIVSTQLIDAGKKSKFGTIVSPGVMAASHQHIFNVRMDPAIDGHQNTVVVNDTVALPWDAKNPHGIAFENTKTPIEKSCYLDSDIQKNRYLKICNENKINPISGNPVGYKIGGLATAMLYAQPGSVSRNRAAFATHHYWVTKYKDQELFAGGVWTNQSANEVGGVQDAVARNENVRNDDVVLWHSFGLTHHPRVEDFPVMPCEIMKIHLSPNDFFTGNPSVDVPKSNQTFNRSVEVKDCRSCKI
Method: DAO-1 activity was determined with the DA-67 assay.
The DAO-1 activity was determined using a colorimetric DA-67 enzyme assay. […] Subsequently, 12 μL (266 units/mL) of horseradish peroxidase (Grade I) were added. The reaction was started by the addition of 25 μL DAO solution and incubated at 37° C. for 10 min and stirred at 750 rpm. The reaction was stopped by the addition of 50 μL sodium diethyldithiocarbamate (30 mM). After centrifugation (10,000 g for 3 min at 20° C.), the absorption was measured at 668 nm. […] Hydrogen peroxide (0.5 to 10 nmol/mL) was used for the calibration. The enzyme activity was calculated in nkat, whereby 1 nkat converts 1 nmol substrate/s at 37° C.
The DAO-1 activity was determined using the DA-67 assay. For unhydrolyzed conditions, the DA-67 reagent (50 μM) was prepared in SIF containing BSA, WPI, sodium-caseinate each at 35.6 g/L and 106.8 g/L sucrose (pH 6.8). […] The DAO-1 was desalted against SIF using PD MidiTrap G-25 columns.
For the hydrolyzed conditions, BSA, WPI, sodium-caseinate each at 16.67 g/L and 50 g/L sucrose were first incubated in SIF (with pancreatin) at 37° C. and 130 rpm for 90 min. […]
All experiments were done at least in duplicate and evaluated by determining the standard deviation with Excel. […] Enzyme kinetics were evaluated by nonlinear regression using the data analyzing software Sigmaplot 12.5 (Systat Software GmbH, Erkrath, Germany).

[6] = biological target: T1, Yarrowia lipolytica PO1f diamine oxidase-1 (DAO-1), wild type, SEQ ID NO: 1; experiment: Michaelis-Menten kinetics of DAO-1 with histamine, DA-67 assay in PIPES buffer; assay type: biochemical; conditions: PIPES buffer (25 mM; pH 7.2), 37° C.
Method: DAO-1 activity determined with the DA-67 assay in PIPES buffer (25 mM; pH 7.2) at 37° C.
The DAO activity was determined using the colorimetric DA-67 enzyme assay, as known in the art. […] Subsequently, 24 μL (266 units/mL) of horseradish peroxidase (Grade I) were added. The reaction was started by the addition of 50 μL enzyme solution and incubated at 37° C. for 10 min and stirred at 750 rpm. The reaction was stopped by the addition of 50 μL sodium diethyldithiocarbamate (30 mM). After centrifugation (10,000 g for 3 min at 20° C.), the absorption was measured at 668 nm. […] Hydrogen peroxide (0.5 to 10 nmol/mL) was used for the calibration. The enzyme activity was calculated in nkat, whereby 1 nkat converts 1 nmol substrate/s at 37° C.
Kinetic investigations were done within the initial reaction velocity.
Data are presented as mean values with standard deviation. Enzyme kinetics were evaluated by nonlinear regression using the data analyzing software Sigmaplot 12.5 (Systat Software GmbH, Erkrath, Germany).

[7] = extracted and partially purified from pig kidney (heat treatment, salt precipitation, HIC), cited from earlier work
[8] = simulated intestinal fluid; cited from earlier work
[9] = kinetic studies from the art; cited from earlier work
[10] = cited from earlier work
[11] = cited from earlier work; for in vitro reduction of histamine: 150 mg/L (75 mg) histamine, 50 nkat (0.1 nkat/mL), 5 h
[12] = substrates at 1 mM; cited from earlier work
[13] = DAO activity of Y. lipolytica PO1f_axp_dao-2 cell extract versus wildtype extract; assay type: biochemical
Method: (§1) The DAO activity was determined using the colorimetric DA-67 enzyme assay, as known in the art.
(§2) Y. lipolytica PO1f was identified as the owner of two putative DAOs using the BLAST program (https://blast.ncbi.nlm.nih.gov). […] Both genes were amplified from the genome of the Y. lipolytica strain PO1f and successfully integrated into the axp locus of the genome (integration efficiency of around 20%), resulting in the recombinant strains Y. lipolytica PO1f_axp_dao-1 and Y. lipolytica PO1f_axp_dao-2. The genes were integrated into the axp locus because it allowed efficient expression of the proteins desired with the chosen strategy for homologous recombinant integration, as known in the art. Gene expression was thereby conducted using the strong, constitutive promoter UAS1B8_TEF (136).

[14] = DAO activity of Y. lipolytica PO1f_axp_dao-2 cell extract versus wildtype extract, agmatine; assay type: biochemical
Method: as §1, §2

[15] = read-out: Ki (substrate inhibition by histamine)

For NCCc1c[nH]cn1 [histamine], the Km [1] is listed as 500 µM, the Km [2] is listed as 600 µM and the Km [3] is listed as 27 µM. The “substrate inhibition by histamine concentrations” value ([3]; porcine kidney DAO, 56 mg/L (0.5 mM)) was over 0.5 mM, the Ki [3, 15] was 5710 µM and the Km [4] was 2.8 µM. The Ki [4, 15] was 280 µM, the “substrate inhibition recognized for histamine concentrations” value (from here on “substrate inhibition recognized”) ([5]; hydrolyzed food-matrix SIF 3) was “greater than 12.5 mM” and the “substrate inhibition recognized” value ([5]; unhydrolyzed food-matrix SIF 3) was “greater than 12.5 mM”. For the same molecule, the “substrate inhibition recognized” value [6] was “greater than 12.5 mM”.

B1: porcine DAO: DAO extracted from porcine kidney (Uniprot: Q9TRC7), prior-art comparator (protein, UniProt Q9TRC7 25-755, looked up)
Diamine oxidase …: ERSPRTPGGKAGVFADLSAQELKAVHSFLWSQKELKLEPSGTLTMAKNSVFLIEMLLPKKQHVLKFLDKGHRRPVREARAVIFFGAQEQPNVTEFAVGPLPTPRYMRDLPPRPGHQVSWASRPISKAEYALLSHKLQEATQPLRQFFRRTTGSSFGDCHEQCLTFTDVAPRGLASGQRRTWFILQRQMPGYFLHPTGLELLVDHGSTNAQDWTVEQVWYNGKFYRSPEELAQKYNDGEVDVVILEDPLAKGKDGESLPEPALFSFYQPRGDFAVTMHGPHVVQPQGPRYSLEGNRVMYGGWSFAFRLRSSSGLQILDVHFGGERIAYEVSVQEAVALYGGHTPAGMQTKYIDVGWGLGSVTHELAPDIDCPETATFLDALHHYDADGPVLYPRALCLFEMPTGVPLRRHFNSNFSGGFNFYAGLKGQVLVLRTTSTVYNYDYIWDFIFYPNGVMEAKMHATGYVHATFYTPEGLRYGTRLHTHLIGNMHTHLVNYRVDLDVAGTTNSFQTLQMELENITNPWSPRHRLVQPTLKQTRYSRERQAAFRFGQPLPKYLLITSPKENPWGHTRSYRLQLHSMADQVLPPGWQEERAVTWARYPLAVTRYRESELSSSSIYNQNDPWDPPVVFEEFLRNNENIEDEDLVAWVTVGFLHIPHSEDIPNTATPGNSVGFLLRPFNFFPEDPALASRDLVVVWPLENGSTYAQRWIPEEDQSCLKPPPFSYNGSYRPV
In the case of B1, the “specific DAO activity” value [7] is listed as 81 nkat/gProtein, the “specific DAO activity” value ([7]; listed as DAO from porcine kidney) is listed as 81±1 nkat/gProtein and the half-life [8] is listed as “approximately 19 minutes”. The “histamine concentration above which substrate inhibition occurs” value [9] was “greater than 56 mg/L”, the “pH of maximal DAO activity” value ([10]; cadaverine as substrate, potassium phosphate buffer) was 7.4 and the “pH of maximal DAO activity” value ([10]; histamine as substrate, potassium phosphate buffer) was 6.3. The “in vitro reduction of histamine” value [11] was “Around 90%”, the “in vitro reduction of histamine” value ([11]; listed as free porcine DAO) was “about 90%” and the “DAO activity required for the degradation of food-relevant histamine (75 mg)” value ([11]; within 5 h under in vitro conditions, about 90% reduction) was 50 nkat. For the same molecule, the “DAO activity with histamine compared to the maximal measured activity with putrescine” value [12] was 19%.

B2: DAO-2: second putative DAO from Y. lipolytica PO1f (Uniprot: A0A371BXN9), gene dao-2 SEQ ID NO: 3 (protein, listed as Yarrowia lipolytica)
chain: MHRLSQLATQTTAATITAGHPLDPLSPSEIEHAASIVKSQMRDSSPYRFNLITLIEPPKAELLAWEASPSSVAKPPRRAEVVLVVRGKKGVTEGRVCLTGSKVLSWSEIEGVQPILTVDDLQKVEEIVRQDPEVIKQCKLIGVDNMSQVYCDPWTIGYDERWGAERRLQQAFLYFRAHQDDSQYSHPLDFTPIYDATEQKVIFIDIPPVRRPLSKLKNSNFNPQDISKTTGYRDVKPIDVSQPEGVNFKMTGRIMEWQGFRFHVGFNYREGIVLSQISFNDHGNQRNMFHRLSLVEMVVPYGNPEHPHQRKHAFDLGEYGAGLMTNPLSLGCDCKGVIHYLDAHFSDAEGKPLTVPNAVCIHEEDNGLLFKHSDFRDEFQTSIVTRATKLILSQIFTAANYEYCVYWIFHQDGTIQLEIKLTGILNTFPCNPGEDLHGWGTEVYPGTNAHNHQHLFSLRIHPAIDSQLHPGNSVAMVDAERSPFPPGHPENLHGNGFRPKRTVFNNPIEAMTDYDGNTSRTWDFFNPKSINQYSKKPASYKLVSRECPPLLPQPGGLVWNRAGFARHHMHVVPYVDGQLYPAGRFVCQTSGKPSRGLPEWIEQCGEKANINDTDVVAYHTFGLTHFPAPEDFPLMPAEPMTLLLRPRNFFLQNPALDVPPSHARTTTEAQAASGAKVVSLTDKVSQLAFNKSCCSK
With B2 the “enzyme activity towards histamine” value ([13]; recombinant Y. lipolytica PO1f_axp_dao-2 extract) was “no activity; also recorded: did not show enzyme activity”, the “increase in DAO-activity versus wildtype cell extract” value ([13]; substrates histamine, putrescine, cadaverine, tyramine, spermidine, tryptamine) was “did not show an increase” and the activity with agmatine ([14]; cell extract, shaking flask) was “around 50 nkatAgmatine (14.5 mM)/LCulture”. For the same molecule, the “increase in activity versus wildtype cell extract” value ([14]; substrate agmatine) was 5.5 fold.

B3: human DAO: human diamine oxidase (Uniprot: P19801), prior-art comparator (protein, UniProt P19801 20-751, looked up)
Diamine oxidase …: EPSPGTLPRKAGVFSDLSNQELKAVHSFLWSKKELRLQPSSTTTMAKNTVFLIEMLLPKKYHVLRFLDKGERHPVREARAVIFFGDQEHPNVTEFAVGPLPGPCYMRALSPRPGYQSSWASRPISTAEYALLYHTLQEATKPLHQFFLNTTGFSFQDCHDRCLAFTDVAPRGVASGQRRSWLIIQRYVEGYFLHPTGLELLVDHGSTDAGHWAVEQVWYNGKFYGSPEELARKYADGEVDVVVLEDPLPGGKGHDSTEEPPLFSSHKPRGDFPSPIHVSGPRLVQPHGPRFRLEGNAVLYGGWSFAFRLRSSSGLQVLNVHFGGERIAYEVSVQEAVALYGGHTPAGMQTKYLDVGWGLGSVTHELAPGIDCPETATFLDTFHYYDADDPVHYPRALCLFEMPTGVPLRRHFNSNFKGGFNFYAGLKGQVLVLRTTSTVYNYDYIWDFIFYPNGVMEAKMHATGYVHATFYTPEGLRHGTRLHTHLIGNIHTHLVHYRVDLDVAGTKNSFQTLQMKLENITNPWSPRHRVVQPTLEQTQYSWERQAAFRFKRKLPKYLLFTSPQENPWGHKRTYRLQIHSMADQVLPPGWQEEQAITWARYPLAVTKYRESELCSSSIYHQNDPWHPPVVFEQFLHNNENIENEDLVAWVTVGFLHIPHSEDIPNTATPGNSVGFLLRPFNFFPEDPSLASRDTVIVWPRDNGPNYVQRWIPEDRDCSMPPPFSYNGTYRPV
In the case of B3, the “pH of maximal DAO activity” value ([10]; putrescine as substrate, phosphate buffer, DAO from blood serum) is given as 7.5.

— patent US20250320468A1, “New Microbial Diamine Oxidase Derived from Yarrowia Lipolytica for the Degradation of Biogenic Amines” (UNIVERSITÄT HOHENHEIM, priority 2021, published 2025)
